# Data as given in patent publication US20210071162A1 (CENTRE NATIONAL DE LA RECHERCHE SCIENTIFIQUE, published 2021).
# T1: LGG
# T1 chain: LGG
# T2: GLM
# T2 chain: GLM
# T3: GMDSLAFSGGL
# T3 chain: GMDSLAFSGGL
# T4: Gly-Gly-pNA
# T4 chain: GG
# B1: PhTET4 (enzyme)
# chain: MERIVKILREILEIPSPTGYTKEVMSYLEKFLKENEVNFYYTNKGALIAGNHPKPELVVIAHVDTLGAMVKEILPDGHLAFSRIGGLVLPTFEGEYCTIITRKGKKFRGTLLLRNPSAHVNREVGKKERKEENMYIRLDELVEKREDTEKLGIRPGDFIAFDPKFEYVNGFVKSHFLDDKASVAAILDLIIDMKDELEKYPVAFFFSPYEEVGHGGSAGYPPTTKELLVVDMGVVGEGVSGKETAVSIAAKDTTGPYDYDMTNRLIELAEENNIPYVVDVFPYYGSDGSAALRAGWDFRVALIGPGVHASHGMERTHVKGLLATKELIRAYIKWKG
# notes: also called TET protein; protein encoded by PH0737 gene
# How the values were obtained:
# [1] = molecular target: T1, LGG
# [2] = molecular target: T2, GLM
# [3] = molecular target: T3, GMDSLAFSGGL
# [4] = molecular target: T4, Gly-Gly-pNA
# [5] = molecular target: the molecule itself; assay: self-assembly of PhTET4 subunits; size-exclusion chromatography and negative stain electron microscopy
# Experimental: After the size exclusion chromatography step, 4 μl of PhTET4 at 0.05 mg/ml were deposited onto carbon-coated 400-mesh copper grids. The samples were stained using uranyl acetate 2% and air-dried. Images were taken under low-dose conditions in a T12FEI electron microscope working at 120 kV and with a nominal magnification of 40,000 using an Orius SC1000 CCD camera.
# The three-dimensional structure of PhTET4 was assessed by producing the recombinant PhTET4 in E. coll. The cellular extract was clarified by heat shock precipitation and the recombinant protein was purified by ion-exchange and size-exclusion chromatographies. […] The dimensions and the shape of PhTET4 are analogous to the three P. horikoshii tetrahedral TET edifices: PhTET1, PhTET2 and PhTET3.
protein,measurement,setting,value
B1,"cleavage of the N-terminal residue of the peptide (reverse phase HPLC, N-terminal sequencing of products)",[1],no enzymatic activity was detected against peptide that do not start by glycine residue even if a glycine residue is present at P1′ position as demonstrated with the LGG tripeptide
same,"cleavage of the N-terminal residue of the peptide (reverse phase HPLC, N-terminal sequencing of products)",[2],PhTET4 does not exert amidolytic activity beyond the N-ter glycine in a peptide context
same,"cleavage of the N-terminal residue of the peptide (reverse phase HPLC, N-terminal sequencing of products)",[3],PhTET4 does not exert amidolytic activity beyond the N-ter glycine in a peptide context
same,"enzymatic activity against the chromogenic peptide (released pNA), relative to Gly-pNA",[4],"PhTET4 displayed significant activity against this substrate, corresponding to 10% of the total activity exhibited in presence of monoacyl compound Gly-pNA"
same,binding result,[5],binds
